{"source": "patent US7084111", "about": "(UNIVERSITY OF FLORIDA RESEARCH FOUNDATION, dated 2006)", "binders": {"B1": {"name": "SEQ ID NO:5 (Tyr-c[Asp-Trp-Arg-DPhe-Asn-Ala-Phe-Dpr]-Tyr) (peptide)", "peptide": "YDWR[dF]NAF[Dap]Y-NH2", "modifications": "lactam 2-9; N-terminus assumed", "SMILES": "C[C@@H]1NC(=O)[C@H](CC(N)=O)NC(=O)[C@@H](Cc2ccccc2)NC(=O)[C@H](CCCNC(=N)N)NC(=O)[C@H](Cc2c[nH]c3ccccc23)NC(=O)[C@@H](NC(=O)[C@@H](N)Cc2ccc(O)cc2)CC(=O)NC[C@@H](C(=O)N[C@@H](Cc2ccc(O)cc2)C(N)=O)NC(=O)[C@H](Cc2ccccc2)NC1=O"}, "B2": {"name": "SEQ ID NO:21 (Ac-Nle-c[Asp-His-DArg-Phe-Phe-Lys]) (peptide)", "peptide": "Ac-[Nle]DH[dR]FFK-NH2", "modifications": "lactam 2-7"}, "B3": {"name": "SEQ ID NO:32 (Tyr-c[Asp-His-(pI)DPhe-Arg-Trp-Asn-Ala-Phe-Dpr]-Tyr) (peptide)", "peptide": "YDHXRWNAFXY", "modifications": "Asp-Dpr side chain lactam bridge; Dpr; (pI)DPhe; C-terminal amide (amide resin)"}, "B4": {"name": "SEQ ID NO:30 (Tyr-c[Asp-(rac)Atc-DPhe-Arg-Trp-Asn-Ala-Phe-Dpr]-Tyr) (peptide)", "peptide": "YDXXRWNAFXY", "modifications": "Asp-Dpr side chain lactam bridge; Dpr; (rac)Atc; DPhe; C-terminal amide (amide resin)"}, "B5": {"name": "SEQ ID NO:24 (Tyr-c[Asp-Ala-DPhe-Arg-Trp-Asn-Ala-Phe-Dpr]-Tyr) (peptide)", "peptide": "YDAXRWNAFXY", "modifications": "Asp-Dpr side chain lactam bridge; Dpr; DPhe; C-terminal amide (amide resin)"}, "B6": {"name": "SEQ ID NO:6 (Tyr-c[Asp-Phe-Arg-Trp-Asn-Ala-Phe-Dpr]-Tyr) (peptide)", "peptide": "YDFRWNAF[Dap]Y-NH2", "modifications": "lactam 2-9"}, "B7": {"name": "SEQ ID NO:38 (Tyr-c[Asp-His-DPhe-Arg-Pro-Asn-Ala-Phe-Dpr]-Tyr) (peptide)", "peptide": "YDHXRPNAFXY", "modifications": "Asp-Dpr side chain lactam bridge; Dpr; DPhe; C-terminal amide (amide resin)"}, "B8": {"name": "SEQ ID NO:29 (Tyr-c[Asp-Phe-DPhe-Arg-Trp-Asn-Ala-Phe-Dpr]-Tyr) (peptide)", "peptide": "YDFXRWNAFXY", "modifications": "Asp-Dpr side chain lactam bridge; Dpr; DPhe; C-terminal amide (amide resin)"}, "B9": {"name": "SEQ ID NO:40 (Tyr-c[Asp-His-DPhe-Arg-DNal(2′)-Asn-Ala-Phe-Dpr]-Tyr) (peptide)", "peptide": "YDHXRXNAFXY", "modifications": "Asp-Dpr side chain lactam bridge; Dpr; DPhe; DNal(2′); C-terminal amide (amide resin)"}, "B10": {"name": "SEQ ID NO:18 (Ac-Ser-Tyr-Ser-Nle-Glu-His-Arg-Phe-DPhe-Gly-Lys-Pro-Val) (peptide)", "peptide": "Ac-SYS[Nle]EHRF[dF]GKPV-NH2", "SMILES": "CCCC[C@H](NC(=O)[C@H](CO)NC(=O)[C@H](Cc1ccc(O)cc1)NC(=O)[C@H](CO)NC(C)=O)C(=O)N[C@@H](CCC(=O)O)C(=O)N[C@@H](Cc1c[nH]cn1)C(=O)N[C@@H](CCCNC(=N)N)C(=O)N[C@@H](Cc1ccccc1)C(=O)N[C@H](Cc1ccccc1)C(=O)NCC(=O)N[C@@H](CCCCN)C(=O)N1CCC[C@H]1C(=O)N[C@H](C(N)=O)C(C)C"}, "B11": {"name": "SEQ ID NO:34 (Tyr-c[Asp-His-DNal(1′)-Arg-Trp-Asn-Ala-Phe-Dpr]-Tyr) (peptide)", "peptide": "YDHXRWNAFXY", "modifications": "Asp-Dpr side chain lactam bridge; Dpr; DNal(1′); C-terminal amide (amide resin)"}, "B12": {"name": "SEQ ID NO:2 (Tyr-c[Asp-Ala-Ala-Ala-Asn-Ala-Phe-Dpr]-Tyr) (peptide)", "peptide": "YDAAANAF[Dap]Y-NH2", "modifications": "lactam 2-9; N-terminus assumed", "SMILES": "C[C@@H]1NC(=O)[C@H](C)NC(=O)[C@@H](NC(=O)[C@@H](N)Cc2ccc(O)cc2)CC(=O)NC[C@@H](C(=O)N[C@@H](Cc2ccc(O)cc2)C(N)=O)NC(=O)[C@H](Cc2ccccc2)NC(=O)[C@H](C)NC(=O)[C@H](CC(N)=O)NC(=O)[C@H](C)NC1=O"}, "B13": {"name": "SEQ ID NO:41 (Tyr-c[Asp-His-DPhe-Arg-Bip-Asn-Ala-Phe-Dpr]-Tyr) (peptide)", "peptide": "YDHXRXNAFXY", "modifications": "Asp-Dpr side chain lactam bridge; Dpr; DPhe; Bip; C-terminal amide (amide resin)"}, "B14": {"name": "SEQ ID NO:4 (Tyr-c[Asp-Trp-Arg-Phe-Asn-Ala-Phe-Dpr]-Tyr) (peptide)", "peptide": "YDWRFNAF[Dap]Y-NH2", "modifications": "lactam 2-9; N-terminus assumed", "SMILES": "C[C@@H]1NC(=O)[C@H](CC(N)=O)NC(=O)[C@H](Cc2ccccc2)NC(=O)[C@H](CCCNC(=N)N)NC(=O)[C@H](Cc2c[nH]c3ccccc23)NC(=O)[C@@H](NC(=O)[C@@H](N)Cc2ccc(O)cc2)CC(=O)NC[C@@H](C(=O)N[C@@H](Cc2ccc(O)cc2)C(N)=O)NC(=O)[C@H](Cc2ccccc2)NC1=O"}, "B15": {"name": "SEQ ID NO:25 (Tyr-c[Asp-His-Ala-Arg-Trp-Asn-Ala-Phe-Dpr]-Tyr) (peptide)", "peptide": "YDHARWNAF[Dap]Y-NH2", "modifications": "lactam 2-10; N-terminus assumed", "SMILES": "C[C@@H]1NC(=O)[C@H](CC(N)=O)NC(=O)[C@H](Cc2c[nH]c3ccccc23)NC(=O)[C@H](CCCNC(=N)N)NC(=O)[C@H](C)NC(=O)[C@H](Cc2c[nH]cn2)NC(=O)[C@@H](NC(=O)[C@@H](N)Cc2ccc(O)cc2)CC(=O)NC[C@@H](C(=O)N[C@@H](Cc2ccc(O)cc2)C(N)=O)NC(=O)[C@H](Cc2ccccc2)NC1=O"}}, "assay_in_all_cases": "cell-based or functional assay", "key": {"[1]": {"target": "mouse melanocortin-1 receptor (mouse, UniProt Q01727 1-315)", "sequence (Q01727 whole entry)": "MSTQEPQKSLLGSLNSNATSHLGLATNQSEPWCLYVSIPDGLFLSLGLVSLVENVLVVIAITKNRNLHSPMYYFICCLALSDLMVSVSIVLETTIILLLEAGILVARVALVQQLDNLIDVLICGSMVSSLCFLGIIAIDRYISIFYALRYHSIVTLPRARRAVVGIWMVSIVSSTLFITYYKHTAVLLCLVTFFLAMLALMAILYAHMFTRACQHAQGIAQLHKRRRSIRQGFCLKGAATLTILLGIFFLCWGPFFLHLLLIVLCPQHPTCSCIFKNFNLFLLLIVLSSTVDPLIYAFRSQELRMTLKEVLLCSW"}, "[2]": {"target": "mouse melanocortin-4 receptor (mouse, UniProt P56450 1-332)", "sequence (P56450 whole entry)": "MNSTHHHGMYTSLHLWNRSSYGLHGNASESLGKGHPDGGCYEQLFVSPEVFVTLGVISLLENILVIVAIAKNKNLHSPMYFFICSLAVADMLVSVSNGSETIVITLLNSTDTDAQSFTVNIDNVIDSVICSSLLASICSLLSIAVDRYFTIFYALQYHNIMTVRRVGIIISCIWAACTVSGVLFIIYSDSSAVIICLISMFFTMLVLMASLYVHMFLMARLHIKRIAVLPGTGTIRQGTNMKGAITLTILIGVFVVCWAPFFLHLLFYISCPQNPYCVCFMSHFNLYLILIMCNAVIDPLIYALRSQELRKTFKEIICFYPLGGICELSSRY"}, "[3]": {"target": "mouse melanocortin-5 receptor (mouse, UniProt P41149 1-325)", "sequence (P41149 whole entry)": "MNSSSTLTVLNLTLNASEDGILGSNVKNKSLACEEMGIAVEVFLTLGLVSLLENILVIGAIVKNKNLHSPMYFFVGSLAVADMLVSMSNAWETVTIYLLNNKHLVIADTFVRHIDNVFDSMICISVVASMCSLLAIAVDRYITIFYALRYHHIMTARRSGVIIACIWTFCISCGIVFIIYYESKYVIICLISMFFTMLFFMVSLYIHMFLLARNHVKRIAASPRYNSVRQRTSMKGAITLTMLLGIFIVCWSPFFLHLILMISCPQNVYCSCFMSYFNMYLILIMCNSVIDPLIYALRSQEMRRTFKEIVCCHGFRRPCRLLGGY"}, "[4]": {"target": "mouse melanocortin-3 receptor (mouse, UniProt P33033 1-323)", "sequence (P33033 whole entry)": "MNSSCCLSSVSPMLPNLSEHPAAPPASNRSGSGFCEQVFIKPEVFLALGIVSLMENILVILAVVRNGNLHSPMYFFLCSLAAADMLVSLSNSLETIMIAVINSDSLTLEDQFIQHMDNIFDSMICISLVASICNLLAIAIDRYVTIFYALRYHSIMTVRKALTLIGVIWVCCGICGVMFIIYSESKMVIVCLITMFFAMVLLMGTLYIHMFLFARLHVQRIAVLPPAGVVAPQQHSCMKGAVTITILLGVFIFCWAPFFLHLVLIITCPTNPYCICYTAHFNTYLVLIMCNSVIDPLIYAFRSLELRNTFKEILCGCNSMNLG"}}, "note": "Bridges are numbered along the chain shown (N, C = ends). Where no end group is shown, it is not given here. [ ]: non-standard residue; d: D form. Nle = CCCC[C@H](N)C(=O)O; Dap = NC[C@H](N)C(=O)O"}
{"binder": "B1", "values": [{"measurement": "EC50 (agonist)", "setting": "[1]", "value": 6120, "unit": "nM"}, {"measurement": "EC50 (agonist)", "setting": "[2]", "value": 10900, "unit": "nM"}, {"measurement": "EC50 (agonist)", "setting": "[3]", "value": 2220, "unit": "nM"}]}
{"binder": "B2", "values": [{"measurement": "EC50 (agonist)", "setting": "[1]", "value": "> 100000", "unit": "nM"}, {"measurement": "EC50 (agonist)", "setting": "[4]", "value": "> 100000", "unit": "nM"}, {"measurement": "EC50 (agonist)", "setting": "[2]", "value": "> 100000", "unit": "nM"}, {"measurement": "EC50 (agonist)", "setting": "[3]", "value": "> 100000", "unit": "nM"}]}
{"binder": "B3", "values": [{"measurement": "EC50 (agonist)", "setting": "[1]", "value": 0.3, "unit": "nM"}, {"measurement": "pA2 (antagonist)", "setting": "[4]", "value": 8.9}, {"measurement": "pA2 (antagonist; Partial agonist)", "setting": "[2]", "value": 9.4}, {"measurement": "EC50 (agonist)", "setting": "[3]", "value": 2.33, "unit": "nM"}]}
{"binder": "B4", "values": [{"measurement": "EC50 (agonist)", "setting": "[1]", "value": 690, "unit": "nM"}, {"measurement": "pA2 (antagonist)", "setting": "[4]", "value": 6.4}, {"measurement": "EC50 (agonist)", "setting": "[2]", "value": 115, "unit": "nM"}, {"measurement": "EC50 (agonist)", "setting": "[3]", "value": 440, "unit": "nM"}]}
{"binder": "B5", "values": [{"measurement": "EC50 (agonist)", "setting": "[1]", "value": 7.2, "unit": "nM"}, {"measurement": "EC50 (agonist)", "setting": "[4]", "value": 29, "unit": "nM"}, {"measurement": "EC50 (agonist)", "setting": "[2]", "value": 0.36, "unit": "nM"}, {"measurement": "EC50 (agonist)", "setting": "[3]", "value": 0.46, "unit": "nM"}]}
{"binder": "B6", "values": [{"measurement": "EC50 (agonist)", "setting": "[1]", "value": 19700, "unit": "nM"}, {"measurement": "EC50 (agonist)", "setting": "[2]", "value": 13400, "unit": "nM"}, {"measurement": "EC50 (agonist)", "setting": "[3]", "value": 3900, "unit": "nM"}]}
{"binder": "B7", "values": [{"measurement": "EC50 (agonist)", "setting": "[1]", "value": 1000, "unit": "nM"}, {"measurement": "EC50 (agonist)", "setting": "[4]", "value": 39200, "unit": "nM"}, {"measurement": "EC50 (agonist)", "setting": "[2]", "value": 7200, "unit": "nM"}, {"measurement": "EC50 (agonist)", "setting": "[3]", "value": 700, "unit": "nM"}]}
{"binder": "B8", "values": [{"measurement": "EC50 (agonist)", "setting": "[1]", "value": 6.04, "unit": "nM"}, {"measurement": "pA2 (antagonist; Partial agonist)", "setting": "[4]", "value": 7.2}, {"measurement": "EC50 (agonist)", "setting": "[2]", "value": 0.64, "unit": "nM"}, {"measurement": "EC50 (agonist)", "setting": "[3]", "value": 3.15, "unit": "nM"}]}
{"binder": "B9", "values": [{"measurement": "EC50 (agonist)", "setting": "[1]", "value": 0.2, "unit": "nM"}, {"measurement": "EC50 (agonist)", "setting": "[4]", "value": 6.5, "unit": "nM"}, {"measurement": "EC50 (agonist)", "setting": "[2]", "value": 0.67, "unit": "nM"}, {"measurement": "EC50 (agonist)", "setting": "[3]", "value": 0.95, "unit": "nM"}]}
{"binder": "B10", "values": [{"measurement": "EC50 (agonist)", "setting": "[1]", "value": 3630, "unit": "nM"}, {"measurement": "EC50 (agonist)", "setting": "[4]", "value": "> 100000", "unit": "nM"}, {"measurement": "EC50 (agonist)", "setting": "[2]", "value": "> 100000", "unit": "nM"}]}
{"binder": "B11", "values": [{"measurement": "EC50 (agonist)", "setting": "[1]", "value": 9.2, "unit": "nM"}, {"measurement": "EC50 (agonist)", "setting": "[4]", "value": 320, "unit": "nM"}, {"measurement": "EC50 (agonist)", "setting": "[2]", "value": 0.57, "unit": "nM"}, {"measurement": "EC50 (agonist)", "setting": "[3]", "value": 3.13, "unit": "nM"}]}
{"binder": "B12", "values": [{"measurement": "EC50 (agonist)", "setting": "[1]", "value": "> 100000", "unit": "nM"}, {"measurement": "EC50 (agonist)", "setting": "[4]", "value": "> 100000", "unit": "nM"}, {"measurement": "EC50 (agonist)", "setting": "[2]", "value": "> 100000", "unit": "nM"}, {"measurement": "EC50 (agonist)", "setting": "[3]", "value": "> 100000", "unit": "nM"}]}
{"binder": "B13", "values": [{"measurement": "EC50 (agonist)", "setting": "[1]", "value": 11.6, "unit": "nM"}, {"measurement": "EC50 (agonist)", "setting": "[4]", "value": 450, "unit": "nM"}, {"measurement": "EC50 (agonist)", "setting": "[2]", "value": 42.6, "unit": "nM"}, {"measurement": "EC50 (agonist)", "setting": "[3]", "value": 3.43, "unit": "nM"}]}
{"binder": "B14", "values": [{"measurement": "EC50 (agonist)", "setting": "[1]", "value": 13500, "unit": "nM"}, {"measurement": "EC50 (agonist)", "setting": "[4]", "value": "> 100000", "unit": "nM"}, {"measurement": "EC50 (agonist; Partial agonist)", "setting": "[2]", "value": 15900, "unit": "nM"}, {"measurement": "EC50 (agonist)", "setting": "[3]", "value": "> 100000", "unit": "nM"}]}
{"binder": "B15", "values": [{"measurement": "EC50 (agonist)", "setting": "[1]", "value": 14000, "unit": "nM"}, {"measurement": "EC50 (agonist; Partial agonist)", "setting": "[4]", "value": 30300, "unit": "nM"}, {"measurement": "EC50 (agonist)", "setting": "[2]", "value": 14700, "unit": "nM"}, {"measurement": "EC50 (agonist)", "setting": "[3]", "value": 690, "unit": "nM"}]}
